Measurements reported in publication PMC12738692, “Identification, characterization, and structure-activity relationship of the ASIC3-selective peptide WRPRFa” (Communications Chemistry, 2025).
Values joined by “and” are separate entries in the source; they are usually repeats but may differ in a detail not shown here. Equal values may be shown once. Read-outs that look alike come from different tables or passages of the source. Where a SMILES comes first, the peptide text is derived from it. Where no end group is shown, it is not given here. [ ]: non-standard residue; d: D form. The star is where a group is joined. Arg(Me2a) = CN(C)C(=N)NCCC[C@H](N)C(=O)O; Cha = N[C@@H](CC1CCCCC1)C(=O)O; pNA = O=[N+]([O-])c1ccc(N*)cc1

Experiments:
[1] = molecular target: T1, human ASIC3 (Homo sapiens, UniProt Q9UHC3); assay type: cell-based; conditions: for Geometric mean (I3s/Ipk) / Mean (I3s/Ipk), arithmetic: QPatch II; for Mean (I3s/Ipk), arithmetic: CHO cells
T1 construct: CHO cells stably expressing human ASIC3 (NM_004769.1)
T1 sequence (Q9UHC3 1-531): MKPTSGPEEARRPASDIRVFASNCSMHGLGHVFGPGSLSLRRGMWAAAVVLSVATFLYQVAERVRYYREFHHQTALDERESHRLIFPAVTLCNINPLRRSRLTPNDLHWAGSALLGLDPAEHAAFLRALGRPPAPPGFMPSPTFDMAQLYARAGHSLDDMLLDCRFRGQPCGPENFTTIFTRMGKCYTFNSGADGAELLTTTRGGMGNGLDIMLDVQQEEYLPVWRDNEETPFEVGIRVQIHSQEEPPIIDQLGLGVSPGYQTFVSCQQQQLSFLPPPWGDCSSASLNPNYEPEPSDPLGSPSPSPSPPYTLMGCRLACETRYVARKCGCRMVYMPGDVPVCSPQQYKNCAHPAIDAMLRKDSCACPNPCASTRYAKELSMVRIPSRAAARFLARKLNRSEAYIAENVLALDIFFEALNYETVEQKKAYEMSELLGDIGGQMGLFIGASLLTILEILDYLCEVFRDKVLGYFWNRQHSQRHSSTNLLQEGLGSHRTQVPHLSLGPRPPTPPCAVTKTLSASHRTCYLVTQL

[2] = molecular target: T2, human ASIC3 (acid-sensing ion channel 3) (human) (UniProt Q9UHC3)
T2 sequence: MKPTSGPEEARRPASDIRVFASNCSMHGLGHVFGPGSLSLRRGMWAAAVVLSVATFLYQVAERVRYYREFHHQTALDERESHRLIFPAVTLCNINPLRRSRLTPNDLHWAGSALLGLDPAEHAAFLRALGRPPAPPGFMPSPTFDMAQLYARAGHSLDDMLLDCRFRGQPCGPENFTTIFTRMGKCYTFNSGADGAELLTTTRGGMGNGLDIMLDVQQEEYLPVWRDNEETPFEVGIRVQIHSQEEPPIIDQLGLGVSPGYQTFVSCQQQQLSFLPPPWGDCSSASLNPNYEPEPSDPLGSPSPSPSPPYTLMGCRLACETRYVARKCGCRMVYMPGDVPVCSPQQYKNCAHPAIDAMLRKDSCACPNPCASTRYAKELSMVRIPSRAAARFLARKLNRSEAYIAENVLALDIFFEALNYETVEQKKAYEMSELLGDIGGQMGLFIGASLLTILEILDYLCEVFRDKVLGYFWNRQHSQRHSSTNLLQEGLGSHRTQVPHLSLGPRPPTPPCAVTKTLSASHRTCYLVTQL

[3] = molecular target: T3, ASIC3 E78Q (Homo sapiens, UniProt Q9UHC3, E78Q); assay: MPC peptide activity on ASIC3 E78Q mutant (I3s/Ipk, peak current, double mutant cycle); assay type: cell-based; conditions: read-out: EC50 (95% CI)
T3 construct: human ASIC3 (NM_004769.4); P2A-mCherry reporter (C, cleaved yes); expressed in transfected cells; host or cells: CHO cells (85050302, Sigma), transient transfection
T3 sequence (Q9UHC3 1-531 E78Q): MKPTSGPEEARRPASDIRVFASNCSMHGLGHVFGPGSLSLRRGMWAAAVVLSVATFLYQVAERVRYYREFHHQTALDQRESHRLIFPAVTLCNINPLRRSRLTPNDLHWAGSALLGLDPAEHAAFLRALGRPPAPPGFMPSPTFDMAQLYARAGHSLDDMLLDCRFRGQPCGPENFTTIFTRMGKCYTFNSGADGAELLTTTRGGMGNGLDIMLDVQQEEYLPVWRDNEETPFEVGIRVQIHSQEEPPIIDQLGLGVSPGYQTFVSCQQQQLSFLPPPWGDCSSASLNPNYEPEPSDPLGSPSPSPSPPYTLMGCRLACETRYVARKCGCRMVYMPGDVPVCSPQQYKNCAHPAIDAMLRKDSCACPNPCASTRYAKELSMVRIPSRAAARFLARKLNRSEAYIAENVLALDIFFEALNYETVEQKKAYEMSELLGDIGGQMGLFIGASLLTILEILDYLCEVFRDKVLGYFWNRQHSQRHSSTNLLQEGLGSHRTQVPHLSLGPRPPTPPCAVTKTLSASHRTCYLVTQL
From the text: We then asked which of the two WRPRFa arginines interacts with the E78/E421 pair. […] To this end, we used a double mutant cycle approach to identify coupling between site 2 or site 4 of WRPRFa with the E78/E421 pair. In this case, the double mutant cycle experiment compared the change in potency caused by single mutations in either WRPRFa or ASIC3 against the change in potency caused by simultaneous mutations in WRPRFa and ASIC3. A coupling coefficient (Ω) can be calculated by dividing the product of the WT/WRPRFa potency and double mutant potency by the product of the two single mutant potencies.
For peptide concentration-response curves, Bottom was set to 0 and Top was constrained to ≤ 1 for peptides that approached plateau phase or where I3s/Ipk reached 1. […] For activation- or desensitization-pH curves, Bottom was set to 0 and Top constrained to 1.

[4] = molecular target: T1, human ASIC3; assay: cell-based
[5] = molecular target: human ASIC3 E78Q (human) (UniProt Q9UHC3)
[6] = molecular target: T2, human ASIC3 (acid-sensing ion channel 3) (human); remark: listed apart in the source
[7] = molecular target: T4, ASIC3 E378Q (Homo sapiens, UniProt Q9UHC3, E378Q); assay: MPC peptide activity on ASIC3 E378Q mutant; assay type: cell-based; conditions: read-out: EC50 (95% CI)
T4 construct: human ASIC3 (NM_004769.4); P2A-mCherry reporter (C, cleaved yes); expressed in transfected cells; host or cells: CHO cells (85050302, Sigma), transient transfection
T4 sequence (Q9UHC3 1-531 E378Q): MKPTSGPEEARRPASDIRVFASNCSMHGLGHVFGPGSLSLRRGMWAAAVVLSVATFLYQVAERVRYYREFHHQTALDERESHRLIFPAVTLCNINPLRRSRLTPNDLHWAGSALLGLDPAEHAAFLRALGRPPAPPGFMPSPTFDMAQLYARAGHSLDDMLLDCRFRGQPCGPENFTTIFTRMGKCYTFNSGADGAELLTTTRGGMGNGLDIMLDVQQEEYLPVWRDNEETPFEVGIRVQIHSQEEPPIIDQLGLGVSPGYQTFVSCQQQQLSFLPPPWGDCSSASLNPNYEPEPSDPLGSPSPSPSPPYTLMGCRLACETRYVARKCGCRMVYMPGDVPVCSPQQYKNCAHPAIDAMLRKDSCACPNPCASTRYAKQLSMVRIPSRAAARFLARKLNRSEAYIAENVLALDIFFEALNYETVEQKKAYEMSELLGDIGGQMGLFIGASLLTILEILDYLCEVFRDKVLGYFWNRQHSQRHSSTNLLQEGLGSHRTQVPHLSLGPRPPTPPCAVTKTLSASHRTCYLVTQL
Method: (§1) We individually mutated the four glutamates to glutamine to remove their charge but maintain the side chain structure (Fig. 4C). We tested each mutant by incubating HEK cells stably expressing ASIC3 or CHO cells transfected with mutant ASIC3 with 30 µM WRPRFa before a pH 6.3 acid stimulus.
(§2) All mutagenesis was performed at Genscript, and sequences were verified by nanopore sequencing by Plasmidsaurus (Eugene, OR). The numbering of ASIC3 amino acids is based on RefSeq NP_004760.1. Plasmids were transfected into CHO cells using Lipofectamine 3000 (Thermo) according to the manufacturer’s protocol. Cells were used for patch-clamp recordings 24–48 h after transfection.
(§3) CHO and HEK cells were tested in the whole-cell configuration on MPC platforms using an Axopatch 200B amplifier (Axon Instruments, San Jose, CA) and a Digidata 1322A or Digidata 1440A digitizer (Axon) using pClamp 9.2 or 10.7 (Molecular Devices, San Jose, CA), respectively. When testing transfected cells, red fluorescence from the cleaved mCherry reporter was used to identify cells expressing ASIC3, ASIC131, or ASIC313. For cells expressing transfected ASIC1a or ASIC2a, the green signal from the cleaved eGFP reporter was used. All electrophysiology data were analyzed with Clampfit 11.1 (Molecular Devices).

[8] = molecular target: T5, ASIC3 E416Q (Homo sapiens, UniProt Q9UHC3, E416Q); assay: MPC peptide activity on ASIC3 E416Q mutant (incl. double mutant cycle); assay type: cell-based; conditions: read-out: EC50 (95% CI)
T5 construct: human ASIC3 (NM_004769.4); P2A-mCherry reporter (C, cleaved yes); expressed in transfected cells; host or cells: CHO cells (85050302, Sigma), transient transfection
T5 sequence (Q9UHC3 1-531 E416Q): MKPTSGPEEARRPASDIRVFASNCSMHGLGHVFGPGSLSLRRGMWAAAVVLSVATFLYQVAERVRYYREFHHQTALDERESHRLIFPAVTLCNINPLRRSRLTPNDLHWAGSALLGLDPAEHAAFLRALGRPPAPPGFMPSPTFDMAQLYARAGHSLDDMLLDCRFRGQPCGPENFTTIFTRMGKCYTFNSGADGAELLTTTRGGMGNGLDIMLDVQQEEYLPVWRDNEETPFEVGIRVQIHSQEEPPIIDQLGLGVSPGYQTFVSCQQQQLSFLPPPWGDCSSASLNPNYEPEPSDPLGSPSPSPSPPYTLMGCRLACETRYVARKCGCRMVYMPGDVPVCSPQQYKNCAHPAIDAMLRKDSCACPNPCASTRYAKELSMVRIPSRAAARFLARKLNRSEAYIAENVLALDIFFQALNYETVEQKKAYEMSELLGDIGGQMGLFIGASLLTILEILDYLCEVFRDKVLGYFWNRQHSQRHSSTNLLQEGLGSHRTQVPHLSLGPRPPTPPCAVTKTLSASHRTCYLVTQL
Method: as §1, §2, §3

[9] = molecular target: T1, human ASIC3; assay: QPatch II peptide concentration-response (I3s/Ipk); assay type: cell-based; conditions: WT ASIC3, QPatch II, read-out: EC50 (95% CI)
Method: RFamide peptide activity on ASIC3 was measured on the QPatch II platform (Sophion, Ballerup, Denmark) using either a CHO or HEK stable cell line and analyzed with Sophion Analyzer software (version 5.2). Prior to recording, the cells were washed twice in PBS (Gibco, Paisley, UK) and treated with Detachin (Genlantis, San Diego) for 3 min, then resuspended in their respective growth media without serum for a concentration of 2 × 10^6 cells/ml. A minimum of 5 mL of cells was added to the QStirrer, which was placed on the deck of the QPatch II and allowed to incubate at room temperature for a minimum of 20 min.
The bath solution contained 135 mM NaCl, 5 mM KCl, 4.8 mM CaCl2, 1 mM MgCl2, 10 mM HEPES, 10 mM MES, and 10 mM glucose adjusted to pH 7.4 with NaOH. The intracellular solution contained 65 mM CsF, 65 mM CsCl, 10 mM HEPES, 5 mM EGTA, 1 mM MgCl2, adjusted to pH 7.4 with CsOH. Cells were held at -60 mV and ASIC currents were evoked with 3 s applications of pH 6.3 buffer. Peptides were preincubated for at least 2 min. The extracellular solution was changed by dispensing 5 µL of buffer through the ~1.7 µL recording chamber, with a solution switch time of 100 ms, that exchanges 99% of the solution. Signals were acquired at 1 kHz and low-pass filtered at 300 Hz. Experiments performed on QPatch II are specifically indicated in the text.

[10] = molecular target: T2, human ASIC3 (acid-sensing ion channel 3) (human); remark: listed apart in the source

WRPRF-COOH: WRPRFa without C-terminal amidation (WRPRF-OH)
Geometric mean (I3s/Ipk) ([1]; 3 µM peptide): 0.0303 | Geometric mean (I3s/Ipk) ([1]; 30 µM peptide, pH 6.3): 0.249

WRPR{Cha}a (peptide)
EC50 of I3s/Ipk, QPatch II [2]: 2.33 µM

CN(C)C(=N)NCCC[C@H](NC(=O)[C@@H]1CCCN1C(=O)[C@H](CCCNC(=N)N)NC(=O)[C@@H](N)Cc1c[nH]c2ccccc12)C(=O)N[C@@H](Cc1ccccc1)C(N)=O [WRP{ADMA}Fa] (H-WRP[Arg(Me2a)]F-NH2)
EC50 [3]: 4.93 µM | EC50 [4]: 21.3 µM

WRP{ADMA}Fa (peptide)
EC50 of I3s/Ipk, escalating peptide before pH 6.3, manual patch clamp [5]: 4.93 µM | EC50 of I3s/Ipk, escalating peptide before pH 6.3, manual patch clamp [6]: 21.3 µM

WIPRF-NH2 [WIPRFa]
EC50 [7]: 20.8 µM | EC50 [8]: 10.3 µM | EC50 [3]: 1.66 µM | EC50 [9]: ≥ 24 µM

FRPRF-NH2 [FRPRFa]
EC50 [9]: 7.84 µM

N=C(N)NCCC[C@H](NC(=O)[C@@H]1CCCN1C(=O)[C@H](CCCNC(=N)N)NC(=O)[C@@H](N)Cc1c[nH]c2ccccc12)C(=O)N[C@@H](CC1CCCCC1)C(N)=O [WRPR{Cha}a] (H-WRPR[Cha]-NH2)
EC50 [9]: 2.33 µM

WKPRF-NH2 [WKPRFa]
EC50 [9]: 9.08 µM

RPRF-p-nitroanilide: RPRFa with C-terminal amide replaced by para-nitroanilide (RPRF-pNA)
I3s/Ipk, SAR - RPRFa - 30 uM [1]: 0.4296 and 0.3944 and 0.359 and 0.3858 and 0.3642 | Mean (I3s/Ipk), arithmetic ([1]; 30 µM peptide): 0.387 | Mean (I3s/Ipk), arithmetic ([1]; 30 µM peptide, listed as RPRF-p-na): 0.387 ± 0.028

N=C(N)NCCC[C@H](NC(=O)[C@@H]1CCCN1C(=O)[C@@H](N)CCCNC(=N)N)C(=O)N[C@@H](Cc1ccccc1)C(N)=O [RPRFa] (H-RPRF-NH2)
EC50 [4]: ≥ 21.3 µM

RPRF-COOH: RPRFa without C-terminal amidation (RPRF-OH)
Mean (I3s/Ipk), arithmetic ([1]; 3 µM peptide): 0.00354 | Mean (I3s/Ipk), arithmetic ([1]; 30 µM peptide): 0.00339 ± 0.00259 and 0.00339

VRPRFa: site 5 Val (VRPRF-NH2)
Geometric mean (I3s/Ipk) ([1]; 3 µM peptide): 0.0213 | Geometric mean (I3s/Ipk) ([1]; 30 µM peptide, pH 6.3): 0.157

RPRF-NH2 [RPRFa]
EC50 of I3s/Ipk, RPRFa before a pH 6.3 stimulus, manual patch clamp, HEK cells [10]: > 21.3 µM
